The values below come from patent US11230581B2, “Peptides and combination of peptides for use in immunotherapy against ovarian cancer and other cancers” (Immatics Biotechnologies GmbH, priority 2015, dated 2022).

This test deals with HLA-A*02:01 (Homo sapiens, UniProt P04439, D140Y/D185E/D98H/E176V/E277Q/G131W/G231S/I119V/I121R/I166T/I218V/L300P/L318F/N151K/N90K/P208A/P217A/Q86G/Q94H/R138H/R169H/T345S). Description: MHC binding assay (UV-ligand exchange, β2m ELISA, peptide exchange yield). Particulars: binding of HLA-class I restricted peptides to HLA-A*02:01, UV-ligand exchange. Summed up:
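Yield of stabilized complexes quantified via the β2m light chain in an ELISA (streptavidin capture, 100-fold diluted monomers, HRP anti-β2m 2 ug/ml at 37 °C, TMB, A450). The complexes come from UV-triggered replacement of a photocleavable ligand by the candidate peptide.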
As for “366 (RLLDMGETDLML; listed as Homo sapiens) [compound 366]”, the “Peptide exchange (MHC class I binding score, peptide exchange yield)” value (shortened to “Peptide exchange”) is recorded as ““+++” (≥50 = +++)”.
With “367 (SLQNHNHQL; listed as Homo sapiens) [compound 367]”, the “Peptide exchange” value is on record as ““+++” (≥50 = +++)”.
The entry for “369 (GLFPEHLIDV; listed as Homo sapiens) [compound 369]” is ““+++” (≥50 = +++)”; for “370 (SLLQDLVSV; listed as Homo sapiens) [compound 370]” it is ““+++” (≥50 = +++)”; for “371 (FLQAHLHTA; listed as Homo sapiens) [compound 371]” it is ““++++” (≥75% = ++++)”.
The entry for “372 (TMLLNIPLV; listed as Homo sapiens) [compound 372]” is ““++” (≥20% = ++)”; for “373 (SLLEDKGLAEV; listed as Homo sapiens) [compound 373]” it is ““++” (≥20% = ++)”; for “374 (FLLQQHLISA; listed as Homo sapiens) [compound 374]” it is ““++” (≥20% = ++)”.
The entry for “375 (SLTETIEGV; listed as Homo sapiens) [compound 375]” is ““++” (≥20% = ++)”; for “376 (AMFESSQNVLL; listed as Homo sapiens) [compound 376]” it is ““++” (≥20% = ++)”.
As to “377 (FLLDSSASV; listed as Homo sapiens) [compound 377]”, the “Peptide exchange” value is ““++” (≥20% = ++)”.
“378 (ALGYFVPYV; listed as Homo sapiens) [compound 378]”: the “Peptide exchange” value is given as ““+++” (≥50 = +++)”.
Next, “379 (IMEGTLTRV; listed as Homo sapiens) [compound 379]”: ““++” (≥20% = ++)”.
The entry for “380 (TLIEDEIATI; listed as Homo sapiens) [compound 380]” is ““++” (≥20% = ++)”; for “381 (FIDEAYVEV; listed as Homo sapiens) [compound 381]” it is ““++” (≥20% = ++)”; for “382 (ALQNYIKEA; listed as Homo sapiens) [compound 382]” it is ““++” (≥20% = ++)”.
The entry for “383 (ALLELENSVTL; listed as Homo sapiens) [compound 383]” is ““+++” (≥50 = +++)”.
With “384 (ILFANPNIFV; listed as Homo sapiens) [compound 384]”, the “Peptide exchange” value is given as ““+++” (≥50 = +++)”.
As to “385 (SLLEQGLVEA; listed as Homo sapiens) [compound 385]”, the “Peptide exchange” value was ““++” (≥20% = ++)”.
On to “386 (ILFRYPLTI; listed as Homo sapiens) [compound 386]”, for which the “Peptide exchange” value is ““+++” (≥50 = +++)”.
Next, “387 (ALFQATAEV; listed as Homo sapiens) [compound 387]”: ““++++” (≥75% = ++++)”; “388 (SLTIDGIRYV; listed as Homo sapiens) [compound 388]”: ““+++” (≥50 = +++)”.
Next, “389 (LLADVTHLL; listed as Homo sapiens) [compound 389]”: ““++” (≥20% = ++)”.
The entry for “390 (ALFMKQIYL; listed as Homo sapiens) [compound 390]” is ““+++” (≥50 = +++)”; for “391 (YVYPQRLNFV; listed as Homo sapiens) [compound 391]” it is ““+++” (≥50 = +++)”.
On to “392 (ALLHPQGFEV; listed as Homo sapiens) [compound 392]”, for which the “Peptide exchange” value is given as ““++” (≥20% = ++)”.
Take “393 (GLLDTQTSQVLTA; listed as Homo sapiens) [compound 393]”: the “Peptide exchange” value is ““++” (≥20% = ++)”.
The entry for “394 (LLAVIGGLVYL; listed as Homo sapiens) [compound 394]” is ““+++” (≥50 = +++)”; for “395 (ALALGGIAVV; listed as Homo sapiens) [compound 395]” it is ““++++” (≥75% = ++++)”.
Next, “396 (ALLPDLPAL; listed as Homo sapiens) [compound 396]”: ““+++” (≥50 = +++)”; “397 (YLFGERLLEC; listed as Homo sapiens) [compound 397]”: ““+++” (≥50 = +++)”.
Next, “398 (KLLEEDGTIITL; listed as Homo sapiens) [compound 398]”: ““++” (≥20% = ++)”.
Turning to “399 (YLFEPLYHV; listed as Homo sapiens) [compound 399]”, the “Peptide exchange” value was ““+++” (≥50 = +++)”.
In the case of “400 (SLLTEQDLWTV; listed as Homo sapiens) [compound 400]”, the “Peptide exchange” value is reported as ““++” (≥20% = ++)”.
Next, “401 (ILLDDTGLAYI; listed as Homo sapiens) [compound 401]”: ““+++” (≥50 = +++)”; “402 (VLFSGALLGL; listed as Homo sapiens) [compound 402]”: ““++” (≥20% = ++)”; “403 (KLYDRILRV; listed as Homo sapiens) [compound 403]”: ““++” (≥20% = ++)”.
Next, “405 (ALYDVFLEV; listed as Homo sapiens) [compound 405]”: ““++” (≥20% = ++)”; “407 (YLMDLINFL; listed as Homo sapiens) [compound 407]”: ““+++” (≥50 = +++)”; “408 (VLDDSIYLV; listed as Homo sapiens) [compound 408]”: ““++” (≥20% = ++)”.
For “409 (LLDAMNYHL; listed as Homo sapiens) [compound 409]”, the “Peptide exchange” value is reported as ““++” (≥20% = ++)”.
With “412 (YLDDLNEGVYI; listed as Homo sapiens) [compound 412]”, the “Peptide exchange” value is recorded as ““++” (≥20% = ++)”.
In the case of “426 (RLADKSVLV; listed as Homo sapiens) [compound 426]”, the “Peptide exchange” value is reported as ““+++” (≥50 = +++)”.
The entry for “427 (ALLPLSPYL; listed as Homo sapiens) [compound 427]” is ““+++” (≥50 = +++)”; for “428 (KLGHTDILVGV; listed as Homo sapiens) [compound 428]” it is ““++” (≥20% = ++)”.
The entry for “429 (GLVNDLARV; listed as Homo sapiens) [compound 429]” is ““++” (≥20% = ++)”; for “430 (HLYSSIEHLTT; listed as Homo sapiens) [compound 430]” it is ““+++” (≥50 = +++)”.
Consider “431 (SLVNVVPKL; listed as Homo sapiens) [compound 431]”, for which the “Peptide exchange” value was ““++” (≥20% = ++)”.
“432 (TLIEESAKV; listed as Homo sapiens) [compound 432]”: the “Peptide exchange” value was ““++” (≥20% = ++)”.
Next, “433 (AMLNEPWAV; listed as Homo sapiens) [compound 433]”: ““+++” (≥50 = +++)”; “434 (KVSNSGITRV; listed as Homo sapiens) [compound 434]”: ““++” (≥20% = ++)”.
“436 (HLAEVSAEV; listed as Homo sapiens) [compound 436]”: the “Peptide exchange” value was ““+++” (≥50 = +++)”.
Next, “437 (SMAPGLVIQAV; listed as Homo sapiens) [compound 437]”: ““+++” (≥50 = +++)”; “438 (KLLPLAGLYL; listed as Homo sapiens) [compound 438]”: ““++++” (≥75% = ++++)”.
The entry for “439 (YLLQEIYGI; listed as Homo sapiens) [compound 439]” is ““+++” (≥50 = +++)”; for “440 (ALADGVTMQV; listed as Homo sapiens) [compound 440]” it is ““++” (≥20% = ++)”.
“441 (ALLENPKMEL; listed as Homo sapiens) [compound 441]”: the “Peptide exchange” value is recorded as ““+++” (≥50 = +++)”.
The entry for “442 (GLLGGGGVLGV; listed as Homo sapiens) [compound 442]” is ““+++” (≥50 = +++)”.
Turning to “443 (GLWEIENNPTV; listed as Homo sapiens) [compound 443]”, the “Peptide exchange” value is ““+++” (≥50 = +++)”.
“444 (GLLRDEALAEV; listed as Homo sapiens) [compound 444]”: the “Peptide exchange” value is ““+++” (≥50 = +++)”.
The entry for “446 (QLIPALAKV; listed as Homo sapiens) [compound 446]” is ““+++” (≥50 = +++)”.
